Experiments:
[1] = biological target: Env Du156.12 (HIV-1 (Du156.12))
Env HxB2 (HIV-1 (HxB2)) = Env HxB2 (HIV-1 (HxB2)) (UniProt P04578)

Substance | neutralisation of Du156.12 (TZM-bl), fold decrease against PGZL1 [1] [fold] | neutralisation of HxB2 (TZM-bl), fold decrease against PGZL1 (Env HxB2 (HIV-1 (HxB2))) [fold]
PGZL1 F100A IgG (antibody) | > 10 | > 10
PGZL1 W99A IgG (antibody) | > 10 | > 10
